This note sets out measurements from paper PMC4423706, “Mechanism of Thiosulfate Oxidation in the SoxA Family of Cysteine-ligated Cytochromes” (The Journal of Biological Chemistry, 2015).

Residue numbers refer to the chain shown, from its start. Names and notes keep the numbering of the source.

T1: TsdA (thiosulfate dehydrogenase) (Allochromatium vinosum, UniProt D3RVD4)
T1 construct: native signal peptide (removed on export), C-terminal strep(II) tag kept; E. coli Lemo56(DE3) with pEC86; two c-type hemes; 28,228 Da by ESI-MS; 234 residues modeled
T1 sequence (D3RVD4 28-270): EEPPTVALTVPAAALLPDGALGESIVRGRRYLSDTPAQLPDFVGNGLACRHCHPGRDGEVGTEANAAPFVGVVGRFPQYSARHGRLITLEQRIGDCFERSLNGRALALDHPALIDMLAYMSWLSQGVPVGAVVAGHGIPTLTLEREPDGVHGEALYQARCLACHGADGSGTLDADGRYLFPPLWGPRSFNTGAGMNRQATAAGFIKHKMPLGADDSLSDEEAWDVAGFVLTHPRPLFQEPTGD

B1: TsdA (thiosulfate dehydrogenase) (Allochromatium vinosum DSM 180) (protein)
chain: T1 sequence (D3RVD4 28-270)
notes: native signal peptide (removed on export), C-terminal strep(II) tag kept; E. coli Lemo56(DE3) with pEC86; two c-type hemes; 28,228 Da by ESI-MS; 234 residues modeled
B2: TsdA (thiosulfate dehydrogenase) (Allochromatium vinosum DSM 180; R119A) (protein)
chain: T1 sequence (D3RVD4 28-270) with R92A
notes: as for B1
B3: TsdA (thiosulfate dehydrogenase) (Allochromatium vinosum DSM 180; R224A) (protein)
chain: T1 sequence (D3RVD4 28-270) with R197A
notes: as for B1
B4: TsdA (thiosulfate dehydrogenase) (Allochromatium vinosum DSM 180; S127A) (protein)
chain: T1 sequence (D3RVD4 28-270) with S100A
notes: as for B1
B5: TsdA (thiosulfate dehydrogenase) (Allochromatium vinosum DSM 180; R109A) (protein)
chain: T1 sequence (D3RVD4 28-270) with R82A
notes: as for B1

Substrate in one data set: O=S(O)(O)=S
Kind of data set: purified protein. Format: biochemical, Allochromatium vinosum. Particulars: 1 mM potassium ferricyanide as electron acceptor, 100 mM ammonium acetate pH 4.25, 24 °C.
B1: the Michaelis constant (Km) is 2.2 ± 0.3 mM and the kcat stood at 4280 ± 150 s⁻¹.

In the case of B2, the Michaelis constant (Km) was determined as 47 ± 7 mM and the catalytic constant (kcat) worked out at 640 ± 40 s⁻¹.

Turning to B3, the Km is 2.5 ± 0.8 mM and the kcat came to 3670 ± 460 s⁻¹.

As to B4, the Km is 10.7 ± 6.2 mM and the catalytic constant (kcat) is 3060 ± 920 s⁻¹.

For the molecule B5, the Km came to 5.8 ± 0.8 mM and the kcat came to 3210 ± 310 s⁻¹.

The target in a further data set is T1, TsdA (thiosulfate dehydrogenase). Kind of data set: ESI-MS of intact protein. Format: biochemical. Particulars: covalent; S-thiosulfonation of Cys123, +112 Da; pH 4.25 and pH 8.0; no electron donor.
Take `O=S(=O)(O)SSS(=O)(=O)O` [tetrathionate]: the “ESI-MS of intact protein” value was “Tetrathionate treatment under both conditions gave the 112-Da increase in mass”.

In general, Km refers to the substrate concentration at which the rate is half of its maximum. A word on the kcat: it is the maximal rate divided by the concentration of active sites.
